Measurements from publication PMC11510292, “Heterobivalent Dual-Target Peptide for Integrin-αvβ3 and Neuropeptide Y Receptors on Breast Tumor” (Pharmaceuticals, 2024).
Where two headings read alike, the source gives them in different places.

Assays:
[1] = Biodistribution in SCID mice bearing MDA-MB-231 xenografts; format: in vivo; conditions: female, mouse, total radioactivity; for tissue uptake at 1 h / tissue uptake per volume at 1 h: SCID, MDA-MB231 model, 60 min p.i., 0.1 mL/18.5 MBq IV; for tissue uptake per volume at 1 h: whole blood
Method: To evaluate the uptake of the radiolabeled peptide by breast tumors, additional biodistribution studies were performed in SCID mice bearing MCF-7 and MDA-MB-231 xenografts (Table 2). […] The tumor uptakes of the radiolabeled conjugate were 9.30 ± 3.25% for MCF-7 and 4.93 ± 1.01% for MDA-MB-231 (Figure 5). The tumor-to-muscle ratios were 5.65 ± 0.94 for the MCF-7 model and 7.78 ± 3.20 for the MDA-MB-231 model (Figure 6).
The animals used in this experiment were provided by the Nuclear and Energy Research Institute (IPEN/CNEN-SP) vivarium. Every effort was made to minimize animal suffering per International Ethical Guidelines. The experimental protocols used in this study were approved by the Scientific Ethics Committee of the IPEN/CNEN-SP. Adult female SCID mice were maintained under controlled environmental conditions (12 h light-dark cycle; constant temperature 21 ± 2 °C), with free access to water and food. Suspensions of cells (5 × 10^6 in 0.1 mL) were subcutaneously injected into the upper back regions of the mice.
(§1) […] Animals were deeply anesthetized and euthanized at the corresponding biodistribution time point. Blood, brain, spleen, heart, stomach, liver, lungs, kidneys, pancreas, muscle, bone, small intestine, and large intestine were collected and weighed. The radioactivity of each organ/tissue was then determined using the above-mentioned automatic gamma counter. The radioactivity was evaluated as the percentage of injected activity per gram of organ/tissue (%IA/g), using the same injected dose activity as a standard. Receptor-blocking studies in tumor models were also carried out by co-administration of 100 μg of cold-conjugated peptide along with radiopeptide.

[2] = Ex vivo biodistribution and blood clearance in healthy Balb/c mice; conditions: for tissue uptake at 5 min / tissue uptake at 0.5 h / tissue uptake at 1 h / tissue uptake at 2 h / tissue uptake at 4 h / tissue uptake at 6 h: mouse, 37 MBq, total radioactivity; for tissue uptake at 5 min: 5 min after IV injection; for tissue uptake at 0.5 h: 30 min after IV injection; for tissue uptake at 1 h: 1 h after IV injection; for tissue uptake at 2 h: 2 h after IV injection; for tissue uptake at 4 h: 4 h after IV injection; for tissue uptake at 6 h: 6 h after IV injection
Method: The ex vivo biodistribution analysis performed with healthy Balb/c mice is presented in Figure 2 and Figure 3, and Table 1. Values are expressed as a percentage of injected activity per gram (%IA/g) of tissue and per milliliter (%IA/mL) of blood.
as §1

[3] = bone, mean ± SD n = 5, read-out: Bone uptake
[4] = brain, mean ± SD n = 5, read-out: Brain uptake
[5] = heart, mean ± SD n = 5, read-out: Heart uptake
[6] = lung, mean ± SD n = 5, read-out: Lung uptake

CCCC[C@H](NC(=O)[C@H](CCCNC(=N)N)NC(=O)[C@H](Cc1c[nH]c2ccccc12)NC(=O)[C@H](CSCC(=O)NCCCC[C@@H]1NC(=O)[C@@H](Cc2ccccc2)NC(=O)[C@H](CC(=O)O)NC(=O)CNC(=O)[C@H](CCCNC(=N)N)NC1=O)NC(=O)[C@@H]1CCCN1C(=O)[C@H](CC(N)=O)NC(=O)[C@@H](NC(=O)COCCOCCNC(=O)c1ccc(NN)nc1)[C@@H](C)CC)C(=O)N[C@@H](CCCNC(=N)N)C(=O)N[C@@H](Cc1ccc(O)cc1)C(N)=O [[^99mTc]HYNIC-cRGDfk-NPY, metal not drawn]
tissue uptake at 1 h ([1]; bone, Block with excess cold peptide, n = 3, read-out: Bone uptake): 0.53 ± 0.16 %ID/g
tissue uptake at 1 h ([1]; bone, Non-Block, n = 5, read-out: Bone uptake): 1.22 ± 0.28 %ID/g
tissue uptake at 1 h ([1]; brain, Block with excess cold peptide, n = 3, read-out: Brain uptake): 0.09 ± 0.01 %ID/g
tissue uptake at 1 h ([1]; brain, Non-Block, n = 5, read-out: Brain uptake): 0.18 ± 0.04 %ID/g
tissue uptake at 1 h ([1]; heart, Block with excess cold peptide, n = 3, read-out: Heart uptake): 0.74 ± 0.2 %ID/g
tissue uptake at 1 h ([1]; heart, Non-Block, n = 5, read-out: Heart uptake): 1.48 ± 0.29 %ID/g
tissue uptake at 1 h ([1]; kidneys, Block with excess cold peptide, n = 3, read-out: Kidneys uptake): 13 ± 2.68 %ID/g
tissue uptake at 1 h ([1]; kidneys, Non-Block, n = 5, read-out: Kidneys uptake): 19.3 ± 2.89 %ID/g
tissue uptake at 1 h ([1]; large intestine, Block with excess cold peptide, n = 3, read-out: Large Intestine uptake): 2.22 ± 0.98 %ID/g
tissue uptake at 1 h ([1]; large intestine, Non-Block, n = 5, read-out: Large Intestine uptake): 5.18 ± 0.87 %ID/g
tissue uptake at 1 h ([1]; liver, Block with excess cold peptide, n = 3, read-out: Liver uptake): 1.41 ± 0.62 %ID/g
tissue uptake at 1 h ([1]; liver, Non-Block, n = 5, read-out: Liver uptake): 3.75 ± 0.51 %ID/g
tissue uptake at 1 h ([1]; lungs, Block with excess cold peptide, n = 3, read-out: Lungs uptake): 1.95 ± 0.6 %ID/g
tissue uptake at 1 h ([1]; lungs, Non-Block, n = 5, read-out: Lungs uptake): 3.27 ± 0.47 %ID/g
tissue uptake at 1 h ([1]; muscle, Block with excess cold peptide, n = 3, read-out: Muscle uptake): 0.33 ± 0.02 %ID/g
tissue uptake at 1 h ([1]; muscle, Non-Block, n = 5, read-out: Muscle uptake): 0.88 ± 0.13 %ID/g
tissue uptake at 1 h ([1]; pancreas, Block with excess cold peptide, n = 3, read-out: Pancreas uptake): 0.7 ± 0.21 %ID/g
tissue uptake at 1 h ([1]; pancreas, Non-Block, n = 5, read-out: Pancreas uptake): 1.35 ± 0.35 %ID/g
tissue uptake at 1 h ([1]; small intestine, Block with excess cold peptide, n = 3, read-out: Small Intestine uptake): 2.16 ± 0.74 %ID/g
tissue uptake at 1 h ([1]; small intestine, Non-Block, n = 5, read-out: Small Intestine uptake): 8.3 ± 1.36 %ID/g
tissue uptake at 1 h ([1]; spleen, Block with excess cold peptide, n = 3, read-out: Spleen uptake): 1.51 ± 0.22 %ID/g
tissue uptake at 1 h ([1]; spleen, Non-Block, n = 5, read-out: Spleen uptake): 5.02 ± 0.63 %ID/g
tissue uptake at 1 h ([1]; stomach, Block with excess cold peptide, n = 3, read-out: Stomach uptake): 2.05 ± 0.33 %ID/g
tissue uptake at 1 h ([1]; stomach, Non-Block, n = 5, read-out: Stomach uptake): 5.63 ± 0.96 %ID/g
tissue uptake at 1 h ([1]; tumor, Block with excess cold peptide, n = 3, p < 0.05 vs non-block, read-out: Tumor uptake): 2.3 ± 0.41 %ID/g
tissue uptake at 1 h ([1]; tumor, Non-Block, n = 5, read-out: Tumor uptake): 4.93 ± 1.01 %ID/g
tissue uptake per volume at 1 h ([1]; Block with excess cold peptide, n = 3): 1.4 ± 0.21 %ID/mL
tissue uptake per volume at 1 h ([1]; Non-Block, n = 5): 1.8 ± 1.03 %ID/mL
tissue to tissue ratio at 1 h ([1]; tumor and muscle, 37 MBq, MDA-MB-231 tumor-bearing SCID mice, 1 h after IV injection, n = 5): 7.78 ± 3.2
Blood half-life ([2]; IV, 0.05 mL/18.5 MBq, exponential decay fit of %IA/mL): 23.04 min
decrease in blood activity ([2]; IV, within 1 h): approximately 90%
crossing of blood-brain barrier ([2]; from low brain uptake): did not cross the blood–brain barrier
tissue uptake at 5 min [2, 3]: 3.19 ± 0.76 %ID/g
tissue uptake at 0.5 h [2, 3]: 3.71 ± 1.37 %ID/g
tissue uptake at 1 h [2, 3]: 2.52 ± 1.67 %ID/g
tissue uptake at 2 h [2, 3]: 0.71 ± 0.22 %ID/g
tissue uptake at 4 h [2, 3]: 0.46 ± 0.14 %ID/g
tissue uptake at 6 h [2, 3]: 0.54 ± 0.28 %ID/g
tissue uptake at 5 min [2, 4]: 0.37 ± 0.11 %ID/g
tissue uptake at 0.5 h [2, 4]: 0.22 ± 0.15 %ID/g
tissue uptake at 1 h [2, 4]: 0.12 ± 0.03 %ID/g
tissue uptake at 2 h [2, 4]: 0.07 ± 0.01 %ID/g
tissue uptake at 4 h [2, 4]: 0.04 ± 0.01 %ID/g
tissue uptake at 6 h [2, 4]: 0.04 ± 0.01 %ID/g
tissue uptake at 5 min [2, 5]: 4.3 ± 1.32 %ID/g
tissue uptake at 0.5 h [2, 5]: 3.21 ± 1.22 %ID/g
tissue uptake at 1 h [2, 5]: 1.04 ± 0.23 %ID/g
tissue uptake at 2 h [2, 5]: 0.55 ± 0.07 %ID/g
tissue uptake at 4 h [2, 5]: 0.35 ± 0.12 %ID/g
tissue uptake at 6 h [2, 5]: 0.33 ± 0.09 %ID/g
tissue uptake at 5 min [2, 6]: 9.8 ± 3.16 %ID/g
tissue uptake at 0.5 h [2, 6]: 4.8 ± 2.67 %ID/g
tissue uptake at 1 h [2, 6]: 2.64 ± 0.83 %ID/g
tissue uptake at 2 h [2, 6]: 1.17 ± 0.2 %ID/g
